# Changes are numbered by the printed parent chain.
# T1: human EphB2 extracellular region-SEAP-His protein (human, UniProt P29323 19-543)
# T1 construct: extracellular domain; also called hEphB2-SEAP-His
# T1 sequence (looked up): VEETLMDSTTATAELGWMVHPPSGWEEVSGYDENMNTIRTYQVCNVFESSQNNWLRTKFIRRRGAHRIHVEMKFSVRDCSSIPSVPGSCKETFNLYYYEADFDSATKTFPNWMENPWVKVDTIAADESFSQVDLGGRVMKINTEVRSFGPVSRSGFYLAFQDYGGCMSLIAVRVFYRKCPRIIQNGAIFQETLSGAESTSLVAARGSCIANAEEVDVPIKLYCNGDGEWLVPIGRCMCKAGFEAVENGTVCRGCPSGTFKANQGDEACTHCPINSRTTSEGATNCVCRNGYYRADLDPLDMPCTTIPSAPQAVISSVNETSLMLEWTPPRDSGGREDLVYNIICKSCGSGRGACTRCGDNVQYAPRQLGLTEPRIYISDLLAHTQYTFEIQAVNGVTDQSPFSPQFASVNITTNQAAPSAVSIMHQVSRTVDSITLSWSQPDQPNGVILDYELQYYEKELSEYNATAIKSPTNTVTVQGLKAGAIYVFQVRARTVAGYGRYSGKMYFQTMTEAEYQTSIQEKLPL
# B1: humanized antibody No. 132 (antibody, human IgG2)
# heavy: QIQLVQSGSELKKPGASVKVSCKASGYTFTDYSMHWVRQAPGQGLKWMGWINTETGEPTYAQGFTGRFVFSLDTSVSTAYLQISSLKAEDTAVYYCARIPLYYYGSRYWYFDVWGQGTTVTVSSASTKGPSVFPLAPSSRSTSESTAALGCLVKDYFPEPVTVSWNSGALTSGVHTFPAVLQSSGLYSLSSVVTVPSSNFGTQTYTCNVDHKPSNTKVDKTVERKSCVECPPCPAPPAAAPSVFLFPPKPKDTLMISRTPEVTCVVVDVSHEDPEVQFNWYVDGVEVHNAKTKPREEQFNSTFRVVSVLTVVHQDWLNGKEYKCKVSNKGLPAPIEKTISKTKGQPREPQVYTLPPSREEMTKNQVSLTCLVKGFYPSDIAVEWESNGQPENNYKTTPPMLDSDGSFFLYSKLTVDKSRWQQGNVFSCSVMHEALHNHYTQKSLSLSPG
# light: EIVMTQSPATLSVSPGERATLSCRASENIYRNLAWYQQKPGQSPRLLIYAATNLADGIPARFSGSGSGTEYTLTISSLQSEDFAVYYCQHFWGTPWTFGQGTKVEIKRTVAAPSVFIFPPSDEQLKSGTASVVCLLNNFYPREAKVQWKVDNALQSGNSQESVTEQDSKDSTYSLSSTLTLSKADYEKHKVYACEVTHQGLSSPVTKSFNRGEC
# notes: human Ig kappa; also called L2-4/HA4
# B2: humanized antibody No. 94 (antibody, human IgG1, kappa)
# heavy: QVQLVQSGSELKKPGASVKVSCKASGYTFTDYSMHWVRQAPGQGLKWMGWINTETGEPTYAQGFTGRFVFSLDTSVSTAYLQISSLKAEDTAVYYCARIPLYYYGSRYWYFDVWGQGTTVTVSSASTKGPSVFPLAPSSKSTSGGTAALGCLVKDYFPEPVTVSWNSGALTSGVHTFPAVLQSSGLYSLSSVVTVPSSSLGTQTYICNVNHKPSNTKVDKRVEPKSCDKTHTCPPCPAPPAAAPSVFLFPPKPKDTLMISRTPEVTCVVVDVSHEDPEVQFNWYVDGVEVHNAKTKPREEQFNSTFRVVSVLTVVHQDWLNGKEYKCKVSNKGLPAPIEKTISKTKGQPREPQVYTLPPSREEMTKNQVSLTCLVKGFYPSDIAVEWESNGQPENNYKTTPPMLDSDGSFFLYSKLTVDKSRWQQGNVFSCSVMHEALHNHYTQKSLSLSPG
# light: B1 light
# notes: human Ig kappa; also called L2-4/HA2
# B3: humanized antibody No. 95 (antibody, human IgG1, kappa)
# heavy: B2 heavy with K46E, Q62D, G63D, T65K
# light: B1 light
# notes: human Ig kappa; also called L2-4/HK1
# B4: humanized antibody No. 71 (antibody, human IgG1, kappa)
# heavy: B2 heavy with V2I
# light: B1 light
# notes: as for B1
# B5: humanized antibody No. 93 (antibody, human IgG1, kappa)
# heavy: B2 heavy with K46E
# light: B1 light
# notes: human Ig kappa; also called L2-4/HA1
# B6: humanized antibody No. 135 (antibody, human IgG2)
# heavy: B1 heavy with I2V, K46E, Q62D, G63D, T65K
# light: B1 light
# notes: as for B3
# B7: humanized antibody No. 73 (antibody, human IgG1, kappa)
# heavy: B2 heavy with V2I, Q62D, G63D, T65K
# light: B1 light
# notes: human Ig kappa; also called L2-4/HK4
# B8: humanized antibody No. 96 (antibody, human IgG1, kappa)
# heavy: B2 heavy with Q62D, G63D, T65K
# light: B1 light
# notes: human Ig kappa; also called L2-4/HK2
# B9: humanized antibody No. 133 (antibody, human IgG2)
# heavy: B1 heavy with I2V, K46E
# light: B1 light
# notes: as for B5
# B10: humanized antibody No. 137 (antibody, human IgG2)
# heavy: B1 heavy with Q62D, G63D, T65K
# light: B1 light
# notes: as for B7
# B11: humanized antibody No. 136 (antibody, human IgG2)
# heavy: B1 heavy with I2V, Q62D, G63D, T65K
# light: B1 light
# notes: as for B8
# Molecular target: T2, human EphA4 extracellular region-SEAP-His protein (human, UniProt P54764 20-547)
# T2 construct: also called hEphA4-SEAP-His
# Test: SPR, Ab captured
# Outline: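 Affinity (KD=kd/ka) obtained by fitting SPR curves to a 1:1 model. Analyte was human EphA4 extracellular region-SEAP-His, injected sequentially from 0.6 to 50 nM in HBS-EP (120 s on, 900 s off), onto humanized antibodies on protein A or antibody A on anti-mouse IgG1 surfaces, capture level about 30–60 RU.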
# T2 sequence (P54764 20-547): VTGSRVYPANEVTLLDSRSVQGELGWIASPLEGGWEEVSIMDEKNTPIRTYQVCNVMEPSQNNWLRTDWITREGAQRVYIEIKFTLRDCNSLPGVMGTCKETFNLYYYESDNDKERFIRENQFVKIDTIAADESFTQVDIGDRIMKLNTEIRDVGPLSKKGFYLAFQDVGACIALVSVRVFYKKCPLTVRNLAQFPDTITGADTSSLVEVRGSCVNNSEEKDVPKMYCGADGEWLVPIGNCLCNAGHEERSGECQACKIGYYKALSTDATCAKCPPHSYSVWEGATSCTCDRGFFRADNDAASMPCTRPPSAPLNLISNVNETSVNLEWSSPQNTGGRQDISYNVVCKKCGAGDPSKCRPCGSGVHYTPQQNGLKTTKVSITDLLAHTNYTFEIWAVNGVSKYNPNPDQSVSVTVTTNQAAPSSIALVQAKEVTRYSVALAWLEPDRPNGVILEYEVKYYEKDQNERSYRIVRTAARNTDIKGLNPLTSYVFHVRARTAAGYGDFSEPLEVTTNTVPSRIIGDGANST
Kd,koff,kon,Binder
1.2 nM,0.00031 s⁻¹,270000 M⁻¹ s⁻¹,B1
0.95 nM,0.00024 s⁻¹,260000 M⁻¹ s⁻¹,B2
1 nM,0.00031 s⁻¹,300000 M⁻¹ s⁻¹,B3
0.82 nM,0.00023 s⁻¹,280000 M⁻¹ s⁻¹,B4
0.77 nM,0.00024 s⁻¹,310000 M⁻¹ s⁻¹,B5
1.3 nM,0.0004 s⁻¹,320000 M⁻¹ s⁻¹,B6
0.93 nM,0.00027 s⁻¹,290000 M⁻¹ s⁻¹,B7
1.1 nM,0.00031 s⁻¹,270000 M⁻¹ s⁻¹,B8
1.1 nM,0.00032 s⁻¹,300000 M⁻¹ s⁻¹,B9
1.3 nM,0.00039 s⁻¹,290000 M⁻¹ s⁻¹,B10
1.4 nM,0.00039 s⁻¹,290000 M⁻¹ s⁻¹,B11

# Molecular target: T1, human EphB2 extracellular …
# Test: ELISA
row,A450 as % of hEphA4-SEAP-His,Binder
1,4.7%,B1
2,7%,B2
3,4.7%,B3
4,5.5%,B4
5,5%,B5
6,5%,B6
7,5.6%,B7
8,5.5%,B8
9,4.6%,B9
10,5.6%,B10
11,5.3%,B11

# Molecular target: T2, human EphA4 extracellular …
# Test: competition ELISA, competitor human Ephrin A5-Fc
# Outline: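 Ligand binding to captured receptor measured as A450 after HRP-streptavidin/TMBZ development and acid stop. Receptor fusion (10 nM final) was immobilised via anti-alkaline phosphatase antibody; biotinylated Ephrin A5-Fc (0.7 nM final) added together with antibody titrations from 0 to 3000 nM, 1 h, room temperature.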
row,IC50,Binder
1,3.1 nM,B1
2,2.7 nM,B2
3,3.1 nM,B3
4,2.5 nM,B4
5,2.5 nM,B5
6,2.5 nM,B6
7,2.4 nM,B7
8,3.7 nM,B8
9,3 nM,B9
10,2.5 nM,B10
11,2.5 nM,B11
